The supplement of paper PMC9428881
± gives the standard error.

Test: background-corrected fluorescence of 3'-dye-labeled ssDNA relative to brightest sequence (3'-GCGCG) (fraction); higher = brighter dye fluorescence (less quenching)
Method in brief: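 Single-stranded DNA was built on glass slides by light-directed phosphoramidite synthesis, ending in a 3' Cy3 or Cy5 dye beside each of 1024 permuted pentamers. Arrays were washed in acetonitrile for 2 h at r.t., then scanned at 532 or 635 nm before and after overnight ethylenediamine/ethanol deprotection. Each value averages 10 features per array and at least 3 syntheses. Fluorescence, corrected by subtracting unlabeled-oligo background, is scaled to the brightest sequence.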

| Sequence | background-corrected fluorescence (dye: Cy3 (3' terminal)) | background-corrected fluorescence (dye: Cy5 (3' terminal)) |
| --- | --- | --- |
| TTTTTTGATCAGCATGCGCATTTTTTTTTTTTTTTCGTAT [TATGC] | 0.555 ± 0.018 | 0.401 ± 0.064 |
| TTTTTGCAGCATGCTCATGCTTTTTTTTTTTTTTTTTAGA [AGATT] | 0.6442 ± 0.0061 | 0.531 ± 0.036 |
| TTTTTTCATGCTGCTGCTGATTTTTTTTTTTTTTTGAAAC [CAAAG] | 0.43 ± 0.023 | 0.333 ± 0.045 |
| TTTTTGCATGATGATGCGCATTTTTTTTTTTTTTTTCCAT [TACCT] | 0.477 ± 0.025 | 0.344 ± 0.024 |
| TTTTTTGCGCATGAGCATCATTTTTTTTTTTTTTTATCTG [GTCTA] | 0.55 ± 0.026 | 0.371 ± 0.036 |
| TTTTTTGATGCTGCTGATCATTTTTTTTTTTTTTTCAACG [GCAAC] | 0.535 ± 0.022 | 0.408 ± 0.039 |
| TTTTTTGATCAGCATCATGATTTTTTTTTTTTTTTCGTGC | 0.504 ± 0.033 | 0.397 ± 0.027 |
| TTTTTGCATGATGATCATCATTTTTTTTTTTTTTTTCCGG [GGCCT] | 0.617 ± 0.0071 | 0.539 ± 0.037 |
| TTTTTTGATCATGATGAGCATTTTTTTTTTTTTTTCGCCT [TCCGC] | 0.488 ± 0.028 | 0.369 ± 0.03 |
| TTTTTTGATGCTGATGATGCTTTTTTTTTTTTTTTCACCA [ACCAC] | 0.493 ± 0.019 | 0.375 ± 0.043 |
| TTTTTTGATGATGCTGATCATTTTTTTTTTTTTTTCCACG [GCACC] | 0.513 ± 0.025 | 0.386 ± 0.021 |
| TTTTTTCATCATCATCAGCATTTTTTTTTTTTTTTGGGGT | 0.741 ± 0.023 | 0.626 ± 0.053 |
| TTTTTGCATGCGCATGATCATTTTTTTTTTTTTTTTATCG [GCTAT] | 0.515 ± 0.016 | 0.402 ± 0.031 |
| TTTTTGCATGCTGCTCATGATTTTTTTTTTTTTTTTAAGC [CGAAT] | 0.524 ± 0.023 | 0.417 ± 0.029 |
| TTTTTTGCTCATCATGATGCTTTTTTTTTTTTTTTAGGCA [ACGGA] | 0.584 ± 0.0074 | 0.463 ± 0.017 |
| TTTTTGCATGATGCGCAGCATTTTTTTTTTTTTTTTCATT [TTACT] | 0.485 ± 0.03 | 0.359 ± 0.028 |
| TTTTTTGAGCAGCATCATGATTTTTTTTTTTTTTTCTTGC [CGTTC] | 0.481 ± 0.026 | 0.365 ± 0.022 |

| Sequence | background-corrected fluorescence (dye: Cy3 (3' terminal)) | background-corrected fluorescence (dye: Cy5 (3' terminal)) |
| --- | --- | --- |
| TTTTTGCATGCGCATGCTGCTTTTTTTTTTTTTTTTATAA [AATAT] | 0.55 ± 0.038 | 0.441 ± 0.069 |
| TTTTTGCATGATGAGCATGATTTTTTTTTTTTTTTTCCTC [CTCCT] | 0.351 ± 0.02 | 0.266 ± 0.019 |
| TTTTTTGATGATGATCATGATTTTTTTTTTTTTTTCCCGC [CGCCC] | 0.51 ± 0.013 | 0.419 ± 0.034 |
| TTTTTTGATGCTCATCATGCTTTTTTTTTTTTTTTCAGGA [AGGAC] | 0.705 ± 0.027 | 0.6 ± 0.034 |
| TTTTTTGCTGAGCAGCATCATTTTTTTTTTTTTTTACTTG [GTTCA] | 0.503 ± 0.019 | 0.4 ± 0.024 |
| TTTTTTGCGCATGCTGCGCATTTTTTTTTTTTTTTATAAT [TAATA] | 0.567 ± 0.0072 | 0.418 ± 0.026 |
| TTTTTTCAGCAGCAGCATGATTTTTTTTTTTTTTTGTTTC [CTTTG] | 0.409 ± 0.024 | 0.306 ± 0.036 |
| TTTTTTGATGATCAGCATCATTTTTTTTTTTTTTTCCGTG [GTGCC] | 0.533 ± 0.0058 | 0.435 ± 0.029 |
| TTTTTTGAGCATGAGCATCATTTTTTTTTTTTTTTCTCTG [GTCTC] | 0.48 ± 0.018 | 0.352 ± 0.033 |
| TTTTTTCAGCATCATCATGATTTTTTTTTTTTTTTGTGGC [CGGTG] | 0.572 ± 0.011 | 0.439 ± 0.041 |
| TTTTTTGCTGATGCTGATCATTTTTTTTTTTTTTTACACG [GCACA] | 0.504 ± 0.029 | 0.422 ± 0.054 |
| TTTTTTCATGCTGATCATGCTTTTTTTTTTTTTTTGACGA [AGCAG] | 0.642 ± 0.026 | 0.52 ± 0.025 |
| TTTTTGCATCATGAGCAGCATTTTTTTTTTTTTTTTGCTT [TTCGT] | 0.514 ± 0.029 | 0.384 ± 0.038 |
| TTTTTTCAGCATCATGCGCATTTTTTTTTTTTTTTGTGAT [TAGTG] | 0.548 ± 0.032 | 0.429 ± 0.021 |
| TTTTTGCATGATGATGCTGCTTTTTTTTTTTTTTTTCCAA [AACCT] | 0.536 ± 0.038 | 0.388 ± 0.025 |
| TTTTTTGATGATGATGCGCATTTTTTTTTTTTTTTCCCAT [TACCC] | 0.49 ± 0.03 | 0.356 ± 0.015 |
| TTTTTTGATCATGCGCATGATTTTTTTTTTTTTTTCGATC [CTAGC] | 0.457 ± 0.018 | 0.354 ± 0.027 |
